Our source for the Kd values is publication PMC11156922, “PDZ2-conjugated-PLGA nanoparticles are tiny heroes in the battle against SARS-CoV-2” (Scientific Reports, 2024).

In test [1] the target is Envelope protein (SARS-CoV-2) (UniProt P0DTC4). Particulars: cited from earlier work.
For test [2], the target named is T1, C-terminal portion of the SARS-CoV-2 Envelope protein, N-terminal biotinylated peptide (SARS-CoV-2).
T1 construct: also called SARS-CoV-2 E-protein; E-tetradecapeptide
T1 peptide: Biotin-VKNLNSSRVPDLLV
Briefly: SPR; Biacore X100; biotinylated E peptide immobilised on streptavidin SA chip (target 1000 RU); PDZ2-f-NPs as analyte, 0.0625-30 uM in equivalents of protein; 25 C; HBS-EP (10 mM Hepes pH 7.4, 0.15 M NaCl, 3 mM EDTA, 0.05% P20); steady-state affinity model / Scatchard plot of maximum amplitudes. Particulars: both partners purified. Background: In SPR one partner is held on a chip, and binding of the other changes the refractive index at the surface.

No end group written: not given here. *: point of attachment. Biotin = O=C1N[C@H]2[C@H](CS[C@H]2CCCCC(=O)*)N1

Usually Kd stands for the free concentration of one partner at which half of the binding sites on the other are occupied at equilibrium, for simple one-to-one binding.

For ZO1 PDZ2 (from UniProt Q07157), the Kd in test [1] is 2100 nM.

B1: PDZ2-ZO1 functionalized PLGA-PEG-Bis-sulfone nanoparticles (PDZ2 domain of human ZO-1, His-tagged, conjugated to the nanoparticle surface) (domain or fragment)
chain: KVTLVKSRKNEEYGLRLASHIFVKEISQDSLAARDGNIQEGDVVLKINGTVTENMSLTDAKTLIERSKGKLKMVVQRDE
modifications: His-tag chemically linked to the bis-sulfone (PEG-mono-sulfone) moiety of PLGA-PEG nanoparticles
In the case of B1, the Kd in test [2] amounted to 970 ± 310 nM.
